{
  "source": "paper PMC3657141",
  "about": "“Directed evolution to re-adapt a co-evolved network within an enzyme” (Journal of Biotechnology, 2012)",
  "proteins": {"B1": {"name": "transketolase (TK) (Escherichia coli K-12; D469S) (protein)", "chain": "MSSRKELANAIRALSMDAVQKAKSGHPGAPMGMADIAEVLWRDFLKHNPQNPSWADRDRFVLSNGHGSMLIYSLLHLTGYDLPMEELKNFRQLHSKTPGHPEVGYTAGVETTTGPLGQGIANAVGMAIAEKTLAAQFNRPGHDIVDHYTYAFMGDGCMMEGISHEVCSLAGTLKLGKLIAFYDDNGISIDGHVEGWFTDDTAMRFEAYGWHVIRDIDGHDAASIKRAVEEARAVTDKPSLLMCKTIIGFGSPNKAGTHDSHGAPLGDAEIALTREQLGWKYAPFEIPSEIYAQWDAKEAGQAKESAWNEKFAAYAKAYPQEAAEFTRRMKGEMPSDFDAKAKEFIAKLQANPAKIASRKASQNAIEAFGPLLPEFLGGSADLAPSNLTLWSGSKAINEDAAGNYIHYGVREFGMTAIANGISLHGGFLPYTSTFLMFVEYARNAVRMAALMKQRQVMVYTHDSIGLGESGPTHQPVEQVASLRVTPNMSTWRPCDQVESAVAWKYGVERQDGPTALILSRQNLAQQERTEEQLANIARGGYVLKDCAGQPELIFIATGSEVELAVAAYEKLTAEGVKARVVSMPSTDAFDKQDAAYRESVLPKAVTARVAVEAGIADYWYKYVGLNGAIVGMTTFGESAPAELLFEEFGFTVDNVVAKAKELL", "notes": "680 residues; homodimer"}},
  "substrate": "CCC=O",
  "test": "purified protein",
  "format": "biochemical, Escherichia coli",
  "details": "50 mM LiHPA, 2.4 mM TPP, 9 mM MgCl2, 250 mM NaCl, 50 mM Tris-HCl, pH 7.0, 21 °C",
  "data": [
    {"protein": "B1", "values": [
      {"measurement": "Km", "result": 70.8, "unit": "mM"},
      {"measurement": "kcat", "result": "0.952 ± 0.0567", "unit": "s⁻¹"},
      {"measurement": "kcat/Km", "result": "13.5 ± 0.333", "unit": "M⁻¹ s⁻¹"}
    ]}
  ]
}
